# Laboratory results published in PMC10786891, “Massively parallel profiling of RNA-targeting CRISPR-Cas13d”.
# T1: EsCas13d, nuclease-dead (Eubacterium siraeum, UniProt B0MS50, R295A;H300A;R849A;H854A)
# T1 sequence: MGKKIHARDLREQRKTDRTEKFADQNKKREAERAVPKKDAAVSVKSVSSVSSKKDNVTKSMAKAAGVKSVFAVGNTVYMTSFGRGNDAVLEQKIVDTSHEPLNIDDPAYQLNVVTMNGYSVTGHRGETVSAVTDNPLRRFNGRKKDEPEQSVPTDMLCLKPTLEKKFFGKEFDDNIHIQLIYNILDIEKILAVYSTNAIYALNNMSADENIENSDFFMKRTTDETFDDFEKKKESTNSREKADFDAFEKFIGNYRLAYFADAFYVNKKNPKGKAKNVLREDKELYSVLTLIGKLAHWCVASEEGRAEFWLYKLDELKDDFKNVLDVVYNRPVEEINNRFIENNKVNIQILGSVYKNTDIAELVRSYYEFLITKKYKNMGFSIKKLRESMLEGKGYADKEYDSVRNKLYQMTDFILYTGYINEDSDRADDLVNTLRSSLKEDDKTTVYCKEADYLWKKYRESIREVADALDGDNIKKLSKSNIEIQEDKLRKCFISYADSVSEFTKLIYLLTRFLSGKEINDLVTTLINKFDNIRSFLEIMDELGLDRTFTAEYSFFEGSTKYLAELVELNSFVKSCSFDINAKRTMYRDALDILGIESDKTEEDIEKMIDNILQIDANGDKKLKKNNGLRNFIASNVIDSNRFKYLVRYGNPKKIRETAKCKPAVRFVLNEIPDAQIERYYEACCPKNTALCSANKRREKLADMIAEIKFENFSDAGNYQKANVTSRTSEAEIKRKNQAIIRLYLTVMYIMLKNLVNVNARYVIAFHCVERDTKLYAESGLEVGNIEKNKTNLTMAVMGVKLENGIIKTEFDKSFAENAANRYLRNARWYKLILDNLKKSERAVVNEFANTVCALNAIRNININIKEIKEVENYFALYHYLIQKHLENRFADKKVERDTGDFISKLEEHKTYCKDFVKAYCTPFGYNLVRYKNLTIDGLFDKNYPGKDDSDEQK
# Target: T1, EsCas13d, nuclease-dead
# Test: crRNA (strand 1, pre-loaded); Mg2+; 40 mM Tris-HCl pH 7.5, 150 mM NaCl, 6 mM MgCl2, 1 mM DTT, 0.1% Tween-20, 0.2 mg/ml BSA; 25 C; 10 min per concentration, then washed
# Conditions: tags: His6-TwinStrep-SUMO cleaved; N-terminal SNAP kept (SNAP-Surface 488); label: 3' end held by stalled T7 RNA polymerase
row,Binder,Kd [nM]
1,target 2 MT 5'PFS AUG 3'PFS AUC (mixed) RNA 1: CACCCGUGCAAAAUUGCAGGGGUCUAAAACCUUCUCCAAAUUGUUUCAUCCU RNA 2: GGGAAUGGAUCCACAUCUACGAAUUCAUGAGGAUGAAACAAUUUGGAGAAGAUCAGAUCGGAAGAGCACACGU,9.3 ± 1.6
2,target 2 MT 5'PFS GGA 3'PFS AGA (mixed) RNA 1: CACCCGUGCAAAAUUGCAGGGGUCUAAAACCUUCUCCAAAUUGUUUCAUCCU RNA 2: GGGAAUGGAUCCACAUCUACGAAUUCGGAAGGAUGAAACAAUUUGGAGAAGAGAAGAUCGGAAGAGCACACGU,8.7 ± 1.1
3,target 2 MT 5'PFS GGA 3'PFS AGG (mixed) RNA 1: CACCCGUGCAAAAUUGCAGGGGUCUAAAACCUUCUCCAAAUUGUUUCAUCCU RNA 2: GGGAAUGGAUCCACAUCUACGAAUUCGGAAGGAUGAAACAAUUUGGAGAAGAGGAGAUCGGAAGAGCACACGU,8.4 ± 0.6
4,target 2 MT 5'PFS GGA 3'PFS AGC (mixed) RNA 1: CACCCGUGCAAAAUUGCAGGGGUCUAAAACCUUCUCCAAAUUGUUUCAUCCU RNA 2: GGGAAUGGAUCCACAUCUACGAAUUCGGAAGGAUGAAACAAUUUGGAGAAGAGCAGAUCGGAAGAGCACACGU,7.3 ± 0.7
5,target 2 MT 5'PFS UAG 3'PFS UCU (mixed) RNA 1: CACCCGUGCAAAAUUGCAGGGGUCUAAAACCUUCUCCAAAUUGUUUCAUCCU RNA 2: GGGAAUGGAUCCACAUCUACGAAUUCUAGAGGAUGAAACAAUUUGGAGAAGUCUAGAUCGGAAGAGCACACGU,38 ± 10
6,target 2 MT 5'PFS GAU 3'PFS CUG (mixed) RNA 1: CACCCGUGCAAAAUUGCAGGGGUCUAAAACCUUCUCCAAAUUGUUUCAUCCU RNA 2: GGGAAUGGAUCCACAUCUACGAAUUCGAUAGGAUGAAACAAUUUGGAGAAGCUGAGAUCGGAAGAGCACACGU,14.9 ± 2
7,target 2 MT 5'PFS AAC 3'PFS UCU (mixed) RNA 1: CACCCGUGCAAAAUUGCAGGGGUCUAAAACCUUCUCCAAAUUGUUUCAUCCU RNA 2: GGGAAUGGAUCCACAUCUACGAAUUCAACAGGAUGAAACAAUUUGGAGAAGUCUAGAUCGGAAGAGCACACGU,14 ± 4
8,target 2 MT 5'PFS CUC 3'PFS CGA (mixed) RNA 1: CACCCGUGCAAAAUUGCAGGGGUCUAAAACCUUCUCCAAAUUGUUUCAUCCU RNA 2: GGGAAUGGAUCCACAUCUACGAAUUCCUCAGGAUGAAACAAUUUGGAGAAGCGAAGAUCGGAAGAGCACACGU,1.62 ± 0.31
9,target 2 MT 5'PFS ACA 3'PFS CAU (mixed) RNA 1: CACCCGUGCAAAAUUGCAGGGGUCUAAAACCUUCUCCAAAUUGUUUCAUCCU RNA 2: GGGAAUGGAUCCACAUCUACGAAUUCACAAGGAUGAAACAAUUUGGAGAAGCAUAGAUCGGAAGAGCACACGU,4.4 ± 1
10,target 2 MT 5'PFS CUC 3'PFS CGC (mixed) RNA 1: CACCCGUGCAAAAUUGCAGGGGUCUAAAACCUUCUCCAAAUUGUUUCAUCCU RNA 2: GGGAAUGGAUCCACAUCUACGAAUUCCUCAGGAUGAAACAAUUUGGAGAAGCGCAGAUCGGAAGAGCACACGU,2.25 ± 0.29
11,target 2 MT 5'PFS GAU 3'PFS UUU (mixed) RNA 1: CACCCGUGCAAAAUUGCAGGGGUCUAAAACCUUCUCCAAAUUGUUUCAUCCU RNA 2: GGGAAUGGAUCCACAUCUACGAAUUCGAUAGGAUGAAACAAUUUGGAGAAGUUUAGAUCGGAAGAGCACACGU,47 ± 13
12,target 2 MT 5'PFS AUG 3'PFS AUU (mixed) RNA 1: CACCCGUGCAAAAUUGCAGGGGUCUAAAACCUUCUCCAAAUUGUUUCAUCCU RNA 2: GGGAAUGGAUCCACAUCUACGAAUUCAUGAGGAUGAAACAAUUUGGAGAAGAUUAGAUCGGAAGAGCACACGU,9.9 ± 1.2
13,target 2 MT 5'PFS UAG 3'PFS UCA (mixed) RNA 1: CACCCGUGCAAAAUUGCAGGGGUCUAAAACCUUCUCCAAAUUGUUUCAUCCU RNA 2: GGGAAUGGAUCCACAUCUACGAAUUCUAGAGGAUGAAACAAUUUGGAGAAGUCAAGAUCGGAAGAGCACACGU,4.8 ± 0.7
14,target 2 MT 5'PFS UUG 3'PFS AAC (mixed) RNA 1: CACCCGUGCAAAAUUGCAGGGGUCUAAAACCUUCUCCAAAUUGUUUCAUCCU RNA 2: GGGAAUGGAUCCACAUCUACGAAUUCUUGAGGAUGAAACAAUUUGGAGAAGAACAGAUCGGAAGAGCACACGU,9.8 ± 1.2
15,target 2 MT 5'PFS GAU 3'PFS CUC (mixed) RNA 1: CACCCGUGCAAAAUUGCAGGGGUCUAAAACCUUCUCCAAAUUGUUUCAUCCU RNA 2: GGGAAUGGAUCCACAUCUACGAAUUCGAUAGGAUGAAACAAUUUGGAGAAGCUCAGAUCGGAAGAGCACACGU,17.8 ± 2.4
16,target 2 MT 5'PFS GGA 3'PFS AGU (mixed) RNA 1: CACCCGUGCAAAAUUGCAGGGGUCUAAAACCUUCUCCAAAUUGUUUCAUCCU RNA 2: GGGAAUGGAUCCACAUCUACGAAUUCGGAAGGAUGAAACAAUUUGGAGAAGAGUAGAUCGGAAGAGCACACGU,14.1 ± 1.4
17,target 2 MT 5'PFS GAU 3'PFS CUU (mixed) RNA 1: CACCCGUGCAAAAUUGCAGGGGUCUAAAACCUUCUCCAAAUUGUUUCAUCCU RNA 2: GGGAAUGGAUCCACAUCUACGAAUUCGAUAGGAUGAAACAAUUUGGAGAAGCUUAGAUCGGAAGAGCACACGU,22 ± 4
18,target 2 MT 5'PFS AUG 3'PFS AUA (mixed) RNA 1: CACCCGUGCAAAAUUGCAGGGGUCUAAAACCUUCUCCAAAUUGUUUCAUCCU RNA 2: GGGAAUGGAUCCACAUCUACGAAUUCAUGAGGAUGAAACAAUUUGGAGAAGAUAAGAUCGGAAGAGCACACGU,9 ± 1.1
19,target 2 MT 5'PFS UUG 3'PFS AAA (mixed) RNA 1: CACCCGUGCAAAAUUGCAGGGGUCUAAAACCUUCUCCAAAUUGUUUCAUCCU RNA 2: GGGAAUGGAUCCACAUCUACGAAUUCUUGAGGAUGAAACAAUUUGGAGAAGAAAAGAUCGGAAGAGCACACGU,6.7 ± 0.6
20,target 2 MT 5'PFS UUU 3'PFS UCC (mixed) RNA 1: CACCCGUGCAAAAUUGCAGGGGUCUAAAACCUUCUCCAAAUUGUUUCAUCCU RNA 2: GGGAAUGGAUCCACAUCUACGAAUUCUUUAGGAUGAAACAAUUUGGAGAAGUCCAGAUCGGAAGAGCACACGU,20.7 ± 1.9
21,target 2 MT 5'PFS AAC 3'PFS UCA (mixed) RNA 1: CACCCGUGCAAAAUUGCAGGGGUCUAAAACCUUCUCCAAAUUGUUUCAUCCU RNA 2: GGGAAUGGAUCCACAUCUACGAAUUCAACAGGAUGAAACAAUUUGGAGAAGUCAAGAUCGGAAGAGCACACGU,9.3 ± 2.5
22,target 2 MT 5'PFS UUG 3'PFS AAG (mixed) RNA 1: CACCCGUGCAAAAUUGCAGGGGUCUAAAACCUUCUCCAAAUUGUUUCAUCCU RNA 2: GGGAAUGGAUCCACAUCUACGAAUUCUUGAGGAUGAAACAAUUUGGAGAAGAAGAGAUCGGAAGAGCACACGU,9.6 ± 0.7
23,target 2 MT 5'PFS ACA 3'PFS CAG (mixed) RNA 1: CACCCGUGCAAAAUUGCAGGGGUCUAAAACCUUCUCCAAAUUGUUUCAUCCU RNA 2: GGGAAUGGAUCCACAUCUACGAAUUCACAAGGAUGAAACAAUUUGGAGAAGCAGAGAUCGGAAGAGCACACGU,4.8 ± 0.9
24,target 2 MT 5'PFS GAU 3'PFS CUA (mixed) RNA 1: CACCCGUGCAAAAUUGCAGGGGUCUAAAACCUUCUCCAAAUUGUUUCAUCCU RNA 2: GGGAAUGGAUCCACAUCUACGAAUUCGAUAGGAUGAAACAAUUUGGAGAAGCUAAGAUCGGAAGAGCACACGU,11.9 ± 1.7
25,target 2 MT 5'PFS UUU 3'PFS UCA (mixed) RNA 1: CACCCGUGCAAAAUUGCAGGGGUCUAAAACCUUCUCCAAAUUGUUUCAUCCU RNA 2: GGGAAUGGAUCCACAUCUACGAAUUCUUUAGGAUGAAACAAUUUGGAGAAGUCAAGAUCGGAAGAGCACACGU,8.7 ± 1
26,target 1 A14G (mixed) RNA 1: CACCCGUGCAAAAAUGCAGGGGUCUAAAACUGAGCGGAUAACCUCUCUAUGG RNA 2: GGGAAUGGAUCCACAUCUACGAAUUCGUACCAUAGAGGGGUUAUCCGCUCACCGAGAUCGGAAGAGCACACGU,13.9 ± 0.7
27,"target 1 A1C,A14G (mixed) RNA 1: CACCCGUGCAAAAAUGCAGGGGUCUAAAACUGAGCGGAUAACCUCUCUAUGG RNA 2: GGGAAUGGAUCCACAUCUACGAAUUCGUACCAUAGAGGGGUUAUCCGCUCCCCGAGAUCGGAAGAGCACACGU",25 ± 4
28,"target 1 C6G,U8C (mixed) RNA 1: CACCCGUGCAAAAAUGCAGGGGUCUAAAACUGAGCGGAUAACCUCUCUAUGG RNA 2: GGGAAUGGAUCCACAUCUACGAAUUCGUACCAUAGAGAGGUUACCGGCUCACCGAGAUCGGAAGAGCACACGU",11.9 ± 0.6
